Consider four molecules from US20250164464A1, “LIVER ORGANOID-DERIVED CULTURED HEPATOCYTES” (OSAKA UNIVERSITY, priority 2022, published 2025).

The subject of data set [1] is hepatic organoid cells. Description: Screening of monolayer culture conditions, ninth day of culture, quantitative RT-PCR (Example 4). The class given is cell-based, human. To be noted: EMTi and FGF19 (100 ng/mL). As to the method:
The medium was replaced with a new one on the third day of the culture, and the cells were differentiated with the HCM™ medium having added thereto the EMTi and FGF19 (100 ng/mL) until the sixth day of the culture.
The respective gene expression levels of ALB and CYP3A4 serving as liver cell markers after 9 days of two-dimensional culture were analyzed by a quantitative RT-PCR method.
The respective gene expression levels of ALB and CYP3A4 were measured by a quantitative RT-PCR method for the respective cells after their culture. A gene expression level when the hepatic organoid cells were cultured only with the HCM™ medium having added thereto the above-mentioned EMTi was defined as a vehicle. Comparison was performed while the gene expression level of ALB of the cells cultured with the HCM™ medium having added thereto the EMTi and FGF19 (100 ng/mL) on the sixth day of the culture was defined as 1.0.

In data set [2] the test system is hepatic organoid cells. Description: Screening of monolayer culture conditions, sixth day of culture, quantitative RT-PCR (Example 3). The class given is cell-based, human. As to conditions: versus third day of culture. As to the method:
Culture conditions up to the sixth day of culture when hepatic organoid cells were subjected to monolayer culture with a HCM™ medium having added thereto each of various factors were investigated in the same manner as in each of Examples 1 and 2.
The hepatic organoid cells were seeded at 3.0×10^5 cells/well on a collagen-coated 48-well plate, and were differentiated with the HCM™ medium having added thereto the EMTi and BMP7 (50 ng/mL) described in Example 2 until the third day of the culture. […] The respective gene expression levels of ALB and CYP3A4 serving as liver cell markers after 6 days of two-dimensional culture were analyzed by a quantitative RT-PCR method. As a comparative example, the gene expression levels of PHHs cultured only with the HCM™ medium and iPS-HLCs were also identified in the same manner as in Example 1.
The respective gene expression levels of ALB and CYP3A4 were measured by a quantitative RT-PCR method for the respective cells after their culture. A gene expression level when the hepatic organoid cells were cultured only with the HCM™ medium having added thereto the above-mentioned EMTi was defined as a vehicle. Comparison was performed while the gene expression level of ALB of the cells cultured by using the EMTi and BMP7 (50 ng/mL) in combination on the third day of the culture was defined as 1.0.

Another data set concerns CYP2B6. Description: Induction of drug-metabolizing enzyme in hepatocytes (2D differentiated cells) (Example 6). To be noted: 1 mM for 24 hours; added on third, sixth or ninth day of culture; control DMSO. The method, then:
(§1) In this Example, the hepatocytes (2D differentiated cells) of the present invention were evaluated for the induction of a drug-metabolizing enzyme on the third day, sixth day, and ninth day of their culture (FIG. 6A). […] After that, the ΔCt value ((Ct value of GAPDH)-(Ct value of target gene)) of each CYP gene was measured for each cell. As a control, dimethylsulfoxide (DMSO) serving as a solvent for each metabolizing enzyme activator was added thereto.

The next data set relates to CYP1A2. The data set is described as above. The class given is cell-based, human. As to conditions: 50 μM for 24 hours; added on third, sixth or ninth day of culture; control DMSO. The method, then:
as §1

In data set [3] the test system is hepatic organoid cells. The experiment in a line: Screening of monolayer culture conditions, third day of culture, EMTi and humoral factors, quantitative RT-PCR (Example 2). As to conditions: combined use of EMTi and BMP7 (50 ng/mL); 72 hours; vehicle (EMTi only)=1.0. The class given is cell-based, human.

With fibroblast growth factor 19 [FGF19], the “gene expression level of CYP3A4 increased by a factor of” value is “about 40” in the data set on hepatic organoid cells [1] (versus sixth day of culture); “about 95” in the data set on hepatic organoid cells [2] (EMTi and FGF19 (100 ng/ml)). In addition, the “gene expression level of ALB” value with hepatic organoid cells [1] (versus sixth day of culture (=1.0)) was “increasing tendency”. For `CCC1(c2ccccc2)C(=O)NC(=O)NC1=O` [phenobarbital], the “gene expression level of CYP2B6 (ΔCt value)” value with CYP2B6 is on record as “further enhanced”.

For the molecule `COc1ccc2[nH]c([S+]([O-])Cc3ncc(C)c(OC)c3C)nc2c1` (stereo not shown) [omeprazole], the “gene expression level of CYP1A2 (ΔCt value)” value with CYP1A2 is reported as “further enhanced”.

B1: bone morphogenetic protein 7 (protein, UniProt P18075 293-431, looked up)
Bone morphogenetic protein 7: STGSKQRSQNRSKTPKNQEALRMANVAENSSSDQRQACKKHELYVSFRDLGWQDWIIAPEGYAAYYCEGECAFPLNSYMNATNHAIVQTLVHFINPETVPKPCCAPTQLNAISVLYFDDSSNVILKKYRNMVVRACGCH
notes: recombinant protein added as a humoral factor
With B1, the “gene expression level of CYP3A4 increased by a factor of” value in the data set with hepatic organoid cells [3] is 50; in the data set on hepatic organoid cells [2] (EMTi and BMP7 (50 ng/ml)), “about 50”.
